PMC10530652 (BME Frontiers, 2021)

Tests used:
[1] = tested on: MMP activity in the alveolar space; assay: In vivo assessment of FIB One and AZD1236 with TLBC in patients; parameters: species or system human; settings: 500 μL AZD1236 14 μg/mL predelivered, then 500 μL FIB One 20 μg/mL, nine patients
Procedure: (§1) In subsequent testing the Miniaturized Alveoflex™-TLBC combination replaced the Alveoflex™ fibre. The entire apparatus was passed transbronchially to allow direct alveolar imaging before localised delivery of agents. Once transbronchial pass was accomplished, baseline lung imaging was recorded for at least 30 sec. A 500 μL microdose of either AZD1236 (14 μg/mL) or sterile PBS (control) was administered under direct observation, and further imaging was obtained for >60 sec. 500 μL of FIB One (20 μg/mL) (delivered only after at least 60s to allow MMP inhibition) was then dosed to the same area with a further 90-120 sec of imaging captured. If considerable movement due to breathing or coughing was encountered, imaging was halted and a new segment identified. Up to 6 segments of interest were investigated per patient determined by patient tolerance.
(§2) All video sequences were assessed by two clinicians with clinical experience of pulmonary endomicroscopy. Frames with excessive movement or lack of recognizable alveolar structure were removed from analysis. Videos were assessed to ensure stability throughout the imaging procedure. […] All video files were analysed using the Cellvizio® Viewer image processing software from Mauna Kea Technologies, Paris. […] The median RFU was calculated for each category and used as a comparative value between groups.

[2] = tested on: MMP activity in the alveolar space; assay: In-human alveolar FCFM imaging after endobronchial delivery of FIB One; type: in vivo; settings: FIB One microdose <100 μg, bolus, patients with parenchymal fibrosis, n=4
Procedure: All participants were scheduled for routine, clinical diagnostic flexible bronchoscopy in our institution with a known or suspected diagnosis of fibrosis or lung cancer. All eight patients had computerized tomography performed prior to bronchoscopy and regions of active disease identified for targeted investigation.
Bronchoscopy was undertaken in an outpatient suite using local anaesthetic and conscious sedation or in theatre under general anaesthetic. FCFM was performed using a clinically approved confocal laser scanning endomicroscopy device (Cellvizio®, Mauna Kea Technologies) with a compatible imaging fibre (Alveoflex™ or Miniaturized Alveoflex™, Mauna Kea Technologies).
In initial exploratory testing, 8 patients with either endobronchial tumour or parenchymal fibrosis underwent FIB One microdosing (<100 μg, <5 mL). […] Images were recorded for at least 30 s at 12 frames/second.
as §2, with “Frames with excessive movement or lack of recognizable alveolar structure were removed from analysis.” left out

patients = assay: Laboratory results in patients after FIB One delivery; type: in vivo, human
From the text: Table S1: Laboratory results. […] Statistical analysis using paired t-test. (Hb= haemoglobin; WCC= white cell count; ALT- alanine transaminase; CRP= C Reactive Protein).

[3] = tested on: patients with fibroproliferative lung disease; assay: Adverse events in the FIB One clinical study; type: in vivo, human
Procedure: In initial exploratory testing, 8 patients with either endobronchial tumour or parenchymal fibrosis underwent FIB One microdosing (<100 μg, <5 mL). FIB One was administered using a delivery catheter (ERBE APC catheter or TLBC) passed out of the working channel of the wedged bronchoscope into the bronchus allowing distal dissipation of the compound for alveolar imaging or applied directly onto visible tumour. FCFM imaging was performed pre- and postinstillation of FIB One, with the fibre tip positioned at the bronchial mucosa or passed into the alveolar region following transbronchial puncture, as appropriate for the clinical indication. Images were recorded for at least 30 s at 12 frames/second.
as §1
Table S5: Patient demographics and AEs part B. Three patients reported adverse events within the 24h period post procedure all of which are commonly associated with flexible bronchoscopy.

[4] = Stability study of FIB One aqueous formulation (HPLC); type: physicochemical; settings: for Conc. / pH: aqueous formulation; for Conc. / ∆% / Total imp. RRT(%): HPLC; for ∆%: change of conc.
[5] = fridge 2-8 °C, 1m, 1st of 2 vials
[6] = fridge 2-8 °C, 1m, 2nd of 2 vials
[7] = fridge 2-8 °C, 3m, 1st of 2 vials
[8] = fridge 2-8 °C, 3m, 2nd of 2 vials
[9] = fridge 2-8 °C, 6m, 1st of 2 vials
[10] = fridge 2-8 °C, 6m, 2nd of 2 vials
[11] = fridge 2-8 °C, 9m, 1st of 2 vials
[12] = fridge 2-8 °C, 9m, 2nd of 2 vials
[13] = fridge 2-8 °C, 10m, 1st of 2 vials
[14] = fridge 2-8 °C, 10m, 2nd of 2 vials
[15] = fridge 2-8 °C, 12m, 1st of 2 vials
[16] = fridge 2-8 °C, 12m, 2nd of 2 vials
[17] = fridge 2-8 °C, 21m, 1st of 2 vials
[18] = fridge 2-8 °C, 21m, 2nd of 2 vials
[19] = fridge 2-8 °C, 24m, 1st of 2 vials
[20] = fridge 2-8 °C, 24m, 2nd of 2 vials
[21] = fridge 2-8 °C, 24h, 1st of 2 vials
[22] = fridge 2-8 °C, 24h, 2nd of 2 vials
[23] = fridge 2-8 °C, 14d, 1st of 2 vials
[24] = fridge 2-8 °C, 14d, 2nd of 2 vials

AZD1236
drug-target engagement within the alveolar space [1]: in situ in vivo drug-target engagement

(Pro-Phe-Gly-Nle-Lys-βAla)3 [FIB One]
alveolar FCFM fluorescent signal following endobronchial delivery [2]: increased fluorescent signal
Potassium (patients; blood 4-6 hours post FIB One delivery, mean (sd), baseline 4.3 (0.4)): 4.2 (0.4) mmol/L
Urea (patients; blood 4-6 hours post FIB One delivery, mean (sd), baseline 4.6 (1.3)): 4.7 (1.1) mmol/L
CRP (patients; blood 4-6 hours post FIB One delivery, mean (sd), baseline 5.4 (8.1)): 5.2 (8.1) mg/L
WCC (patients; blood 4-6 hours post FIB One delivery, mean (sd), baseline 7.6 (1.1), p <0.0001): 10.9 (2.9) x10^9/L
Bilirubin (patients; blood 4-6 hours post FIB One delivery, mean (sd), baseline 12.5 (5.3)): 12.4 (4.6) umol/L
ALT (patients; blood 4-6 hours post FIB One delivery, mean (sd), baseline 25.2 (18.2)): 23.8 (15.2) IU/L
Creatinine (patients; blood 4-6 hours post FIB One delivery, mean (sd), baseline 77.5 (11.5)): 77.3 (12.1) umol/L
Sodium (patients; blood 4-6 hours post FIB One delivery, mean (sd), baseline 138.9 (2.7), p 0.01): 137.7 (3.2) mmol/L
Hb (patients; blood 4-6 hours post FIB One delivery, mean (sd), baseline 148.6 (11.3), p 0.0002): 143 g/L
Platelets (patients; blood 4-6 hours post FIB One delivery, mean (sd), baseline 221.5 (53.2)): 221.2 (52.6) x10^9/L
clinically significant alterations of laboratory results (patients; pre procedure vs 4-6 hours post FIB One delivery): no clinically significant alterations
Adverse Events ([3]; Part A, one line per patient DO01-DO08, FIB One microdose <100 μg): Nil and Haemoptysis and Cough and Fever
Adverse Events ([3]; Part B, one line per patient DO09-DO17, FIB One with or without AZD1236 via TLBC, within 24h post procedure): Nil and Cough and Cough Fever and Haemoptysis
significant adverse events ([3]; eight patients, endobronchial FIB One bolus): no significant adverse events
degradation in aqueous formulation of the drug product (HPLC traces) ([4]; after 24 months, stored at 2-8°C): no degradation
Conc. [4, 5]: 80.16 µg per 5mL
Conc. [4, 6]: 77.20 µg per 5mL
Conc. [4, 7]: 78.87 µg per 5mL
Conc. [4, 8]: 72.63 µg per 5mL
Conc. [4, 9]: 64.94 µg per 5mL
Conc. [4, 10]: 72.74 µg per 5mL
Conc. [4, 11]: 70.54 µg per 5mL
Conc. [4, 12]: 66.27 µg per 5mL
Conc. [4, 13]: 62.55 µg per 5mL
Conc. [4, 14]: 67.69 µg per 5mL
pH [4, 15]: 7.5
pH [4, 16]: 7.5
Conc. [4, 15]: 60.40 µg per 5mL
Conc. [4, 16]: 57.67 µg per 5mL
pH [4, 17]: 7.5
pH [4, 18]: 7.5
Conc. [4, 17]: 65.38 µg per 5mL
Conc. [4, 18]: 59.62 µg per 5mL
pH [4, 19]: 7.5
pH [4, 20]: 7.5
Conc. [4, 19]: 58.4 µg per 5mL
Conc. [4, 20]: 58.4 µg per 5mL
Conc. [4, 21]: 81.63 µg per 5mL
Conc. [4, 22]: 82.28 µg per 5mL
Conc. [4, 23]: 76.85 µg per 5mL
Conc. [4, 24]: 84.60 µg per 5mL
pH ([4]; timepoint 0): 7.5
∆% [4, 5]: -10.9%
∆% [4, 6]: -14.2%
∆% [4, 7]: -12.4%
∆% [4, 8]: -19.3%
∆% [4, 9]: -27.8%
∆% [4, 10]: -19.2%
∆% [4, 11]: -21.6%
∆% [4, 12]: -26.4%
∆% [4, 13]: -30.5%
∆% [4, 14]: -24.8%
∆% [4, 15]: -32.9%
∆% [4, 16]: -35.9%
∆% [4, 17]: -27.3%
∆% [4, 18]: -33.8%
∆% [4, 19]: -35.1%
∆% [4, 20]: -35.1%
∆% [4, 21]: -9.3%
∆% [4, 22]: -8.6%
∆% [4, 23]: -14.6%
∆% [4, 24]: -6.1%
Total imp. RRT(%) [4, 5]: ND/NQ ND/NQ
Total imp. RRT(%) [4, 6]: ND/NQ ND/NQ
Total imp. RRT(%) [4, 7]: ND/NQ ND/NQ
Total imp. RRT(%) [4, 8]: ND/NQ ND/NQ
Total imp. RRT(%) [4, 9]: ND/NQ ND/NQ
Total imp. RRT(%) [4, 10]: ND/NQ ND/NQ
Total imp. RRT(%) [4, 11]: ND/NQ ND/NQ
Total imp. RRT(%) [4, 12]: ND/NQ ND/NQ
Total imp. RRT(%) [4, 13]: ND/NQ ND/NQ
Total imp. RRT(%) [4, 14]: ND/NQ ND/NQ
Total imp. RRT(%) [4, 15]: ND/NQ ND/NQ
Total imp. RRT(%) [4, 16]: ND/NQ ND/NQ
Total imp. RRT(%) [4, 17]: ND/NQ ND/NQ
Total imp. RRT(%) [4, 18]: ND/NQ ND/NQ
Total imp. RRT(%) [4, 19]: ND/NQ ND/NQ
Total imp. RRT(%) [4, 20]: ND/NQ ND/NQ
Total imp. RRT(%) [4, 21]: ND/NQ ND/NQ
Total imp. RRT(%) [4, 22]: ND/NQ ND/NQ
Total imp. RRT(%) [4, 23]: ND/NQ ND/NQ
Total imp. RRT(%) [4, 24]: ND/NQ ND/NQ
